Experimental data: US20240262791A1 (University of California, published 2024)

Molecular target: Spike protein on SARS-CoV-2 GFP Reporter Virus Particles (pseudotyped lentivirus), wild-type strain (SARS-CoV-2, UniProt P0DTC2 14-1273)
Assay: cell-based or functional assay

B1: Wildtype SR4 nanobody (VHH)
VHH: QVQLVESGGGLVQAGGSLRLSCAASGFPVYSWNMWWYRQAPGKEREWVAAIESHGDSTRYADSVKGRFTISRDNAKNTVYLQMNSLKPEDTAVYYCYVWVGHTYYGQGTQVTVSA
IC50, inhibition of pseudovirus infection of 293T-ACE2 cells: 550 nM
